Data reported in article PMC4189786.

Target: serum albumin (HSA in Results and figures; Methods state purchased bovine serum albumin, Sigma A7030) ((Methods: bovine)) (UniProt P02769)
Assay: tryptophan fluorescence quenching
Conditions: 6 uM albumin, off-target, 6 uM albumin in phosphate buffer (10 mM) pH 7.4, 37 C, excitation 290 nm, emission 300-400 nm, 90 s after each aptamer addition

Chain of serum albumin (HSA in Results and figures; Methods state purchased bovine serum albumin, Sigma A7030) ((Methods: bovine)) (P02769 25-607): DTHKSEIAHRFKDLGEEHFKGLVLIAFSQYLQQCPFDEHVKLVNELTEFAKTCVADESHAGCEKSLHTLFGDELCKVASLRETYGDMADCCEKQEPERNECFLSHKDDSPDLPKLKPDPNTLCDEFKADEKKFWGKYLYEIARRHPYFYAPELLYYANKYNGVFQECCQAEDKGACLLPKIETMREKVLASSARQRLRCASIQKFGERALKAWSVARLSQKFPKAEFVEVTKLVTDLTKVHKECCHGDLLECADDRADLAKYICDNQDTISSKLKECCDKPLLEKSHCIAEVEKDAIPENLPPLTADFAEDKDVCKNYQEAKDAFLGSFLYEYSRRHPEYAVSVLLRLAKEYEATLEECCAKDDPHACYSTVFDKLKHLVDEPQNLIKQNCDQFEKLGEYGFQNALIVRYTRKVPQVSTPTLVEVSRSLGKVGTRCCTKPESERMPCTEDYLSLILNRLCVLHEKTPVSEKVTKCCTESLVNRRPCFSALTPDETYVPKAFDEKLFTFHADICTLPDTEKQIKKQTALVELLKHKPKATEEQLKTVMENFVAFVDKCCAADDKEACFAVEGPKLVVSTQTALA

Sequence | binding signal (aptamer:HSA 1:10) [% quenching] | binding signal (aptamer:HSA 1:100) [% quenching]
ACTTTTGAATGTGGCAACAAATTCGACAGG [1.5 M Short] | 9 | 1.5
GGGAGACAAGAATAAACGCTCAAATGGACTTTTGAATGTGGCAACAAATTCGACAGGAGGCTCACAACAGGC [1.5 M Long] | 16 | 2.4
